# Laboratory results: patent US20150344570A1 (published 2015)
# T1: FcgRIIaR (human, UniProt P12318 34-217)
# T1 construct: extracellular domain; also called FcγRIIa R; FcgRIIa type R; not shown: His tag attached to the C terminus
# T1 sequence (looked up): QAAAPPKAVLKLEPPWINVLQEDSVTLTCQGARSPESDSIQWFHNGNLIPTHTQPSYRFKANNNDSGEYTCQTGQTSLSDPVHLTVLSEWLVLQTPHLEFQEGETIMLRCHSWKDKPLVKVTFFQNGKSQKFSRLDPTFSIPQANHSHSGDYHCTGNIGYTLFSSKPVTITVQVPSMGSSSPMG
# T2: FcgRIIb (human, UniProt P31994 43-217)
# T2 construct: extracellular domain; also called FcγRIIb; 2b; not shown: His tag attached to the C terminus
# T2 sequence (looked up): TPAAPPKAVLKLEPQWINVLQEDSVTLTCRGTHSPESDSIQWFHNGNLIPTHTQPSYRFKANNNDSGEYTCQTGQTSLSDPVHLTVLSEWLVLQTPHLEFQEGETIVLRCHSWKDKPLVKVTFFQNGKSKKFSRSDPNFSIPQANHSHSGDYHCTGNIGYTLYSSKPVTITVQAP
# T3: FcgRIIaH (human, UniProt P12318 34-217)
# T3 construct: extracellular domain; also called FcγRIIa H; FcgRIIa type H; not shown: His tag attached to the C terminus
# T3 sequence (looked up): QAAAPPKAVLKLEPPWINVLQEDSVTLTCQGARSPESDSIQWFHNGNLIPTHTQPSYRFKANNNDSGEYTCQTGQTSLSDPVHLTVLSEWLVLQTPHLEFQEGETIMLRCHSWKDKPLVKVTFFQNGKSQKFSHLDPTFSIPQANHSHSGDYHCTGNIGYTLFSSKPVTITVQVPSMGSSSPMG
# T4: FcgRIIb (human, UniProt P31994 43-217)
# T4 construct: extracellular domain; also called FcγRIIb; 2b; not shown: His tag attached to the C terminus
# T4 sequence (looked up): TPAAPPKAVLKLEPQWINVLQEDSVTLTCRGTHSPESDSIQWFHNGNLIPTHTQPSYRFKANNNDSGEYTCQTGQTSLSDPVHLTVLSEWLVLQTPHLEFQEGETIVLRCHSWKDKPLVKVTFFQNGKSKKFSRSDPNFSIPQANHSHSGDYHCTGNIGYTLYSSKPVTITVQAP
# T5: FcgRIIaR (human, UniProt P12318 34-217)
# T5 construct: extracellular domain; also called FcγRIIa R; FcgRIIa type R; not shown: His tag attached to the C terminus
# T5 sequence (looked up): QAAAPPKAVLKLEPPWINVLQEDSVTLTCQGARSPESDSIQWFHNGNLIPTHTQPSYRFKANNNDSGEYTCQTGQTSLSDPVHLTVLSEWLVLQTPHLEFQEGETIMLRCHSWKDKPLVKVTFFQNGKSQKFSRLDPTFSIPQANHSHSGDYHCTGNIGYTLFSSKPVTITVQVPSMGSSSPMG
# T6: FcgRIIaH (human, UniProt P12318 34-217)
# T6 construct: extracellular domain; also called FcγRIIa H; FcgRIIa type H; not shown: His tag attached to the C terminus
# T6 sequence (looked up): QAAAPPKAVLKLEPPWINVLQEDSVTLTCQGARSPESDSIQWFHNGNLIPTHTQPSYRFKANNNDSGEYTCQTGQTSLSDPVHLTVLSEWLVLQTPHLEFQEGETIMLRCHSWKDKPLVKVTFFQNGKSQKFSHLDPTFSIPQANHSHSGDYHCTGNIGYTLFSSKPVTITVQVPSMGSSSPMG
# B1: H240-Kn125/H240-Hl076/L73-k0 (antibody, human IgG1, kappa)
# heavy 1: QDQLVQSGAEVKKPGASVKVSCKASGFNIKDTYIQWVRQAPGQGLEWMGRIDPLRKQTKYREKFEGRVTITADTSTNTAYMELSSLRSEDTAVYYCVRSGREFDYWGQGTLVTVSSASTKGPSVFPLAPSSKSTSGGTAALGCLVKDYFPEPVTVSWNSGALTSGVHTFPAVLQSSGLYSLSSVVTVPSSSLGTQTYICNVNHKPSNTKVDKKVEPKSCDKTHTCPPCPAPEYQWGPMVFLFPPKPKDTLMISRTPEVTCVVVDVSDEEPEVKFNWYVDGVEVHNAKTKPREEQYNATYRVVSVLTVLHQDWLNGKEYKCKVSNKALPAPIEKTISKAKGQPREPQVCTLPPSRDELTKNQVSLWCLVKGFYPSDIAVEWESNGQPENNYKTTPPVLDSDGSFFLYSKLTVDKSRWQQGNVFSCSVMHEALHNHYTQKSLSLSP
# heavy 2: QDQLVQSGAEVKKPGASVKVSCKASGFNIKDTYIQWVRQAPGQGLEWMGRIDPLRKQTKYREKFEGRVTITADTSTNTAYMELSSLRSEDTAVYYCVRSGREFDYWGQGTLVTVSSASTKGPSVFPLAPSSKSTSGGTAALGCLVKDYFPEPVTVSWNSGALTSGVHTFPAVLQSSGLYSLSSVVTVPSSSLGTQTYICNVNHKPSNTKVDKKVEPKSCDKTHTCPPCPAPELLGGPSVFLFPPKPKDTLMISRTPEVTCVVVDVSHEEPEVKFNWYVDGVEVHNAKTKPREEQYNSTYRVVSVLTVLHQDWLNGKEYKCKVSNDALPMPIEETISKAKGQPREPQVYTLPPSRCELTKNQVSLSCAVKGFYPSDIAVEWESNGQPENNYKTTPPVLDSDGSFFLVSKLTVDKSRWQQGNVFSCSVMHEALHNHYTQKSLSLSP
# light: DIQMTQSPSSLSASVGDRVTITCRASQDIHKYIAWYQQKPGQAPRLLIQYTSTLQPGVPSRFSGSGSGTDYTFTISSLQPEDIATYYCLQYEQLRTFGGGTKVEIKRTVAAPSVFIFPPSDEQLKSGTASVVCLLNNFYPREAKVQWKVDNALQSGNSQESVTEQDSKDSTYSLSSTLTLSKADYEKHKVYACEVTHQGLSSPVTKSFNRGEC
# B2: H240-Kn125/H240-Hl076/L73-k0 (antibody, human IgG1, kappa)
# heavy 1: QDQLVQSGAEVKKPGASVKVSCKASGFNIKDTYIQWVRQAPGQGLEWMGRIDPLRKQTKYREKFEGRVTITADTSTNTAYMELSSLRSEDTAVYYCVRSGREFDYWGQGTLVTVSSASTKGPSVFPLAPSSKSTSGGTAALGCLVKDYFPEPVTVSWNSGALTSGVHTFPAVLQSSGLYSLSSVVTVPSSSLGTQTYICNVNHKPSNTKVDKKVEPKSCDKTHTCPPCPAPEYQWGPMVFLFPPKPKDTLMISRTPEVTCVVVDVSDEEPEVKFNWYVDGVEVHNAKTKPREEQYNATYRVVSVLTVLHQDWLNGKEYKCKVSNKALPAPIEKTISKAKGQPREPQVCTLPPSRDELTKNQVSLWCLVKGFYPSDIAVEWESNGQPENNYKTTPPVLDSDGSFFLYSKLTVDKSRWQQGNVFSCSVMHEALHNHYTQKSLSLSP
# heavy 2: QDQLVQSGAEVKKPGASVKVSCKASGFNIKDTYIQWVRQAPGQGLEWMGRIDPLRKQTKYREKFEGRVTITADTSTNTAYMELSSLRSEDTAVYYCVRSGREFDYWGQGTLVTVSSASTKGPSVFPLAPSSKSTSGGTAALGCLVKDYFPEPVTVSWNSGALTSGVHTFPAVLQSSGLYSLSSVVTVPSSSLGTQTYICNVNHKPSNTKVDKKVEPKSCDKTHTCPPCPAPELLGGPSVFLFPPKPKDTLMISRTPEVTCVVVDVSHEEPEVKFNWYVDGVEVHNAKTKPREEQYNSTYRVVSVLTVLHQDWLNGKEYKCKVSNDALPMPIEETISKAKGQPREPQVYTLPPSRCELTKNQVSLSCAVKGFYPSDIAVEWESNGQPENNYKTTPPVLDSDGSFFLVSKLTVDKSRWQQGNVFSCSVMHEALHNHYTQKSLSLSP
# light: DIQMTQSPSSLSASVGDRVTITCRASQDIHKYIAWYQQKPGQAPRLLIQYTSTLQPGVPSRFSGSGSGTDYTFTISSLQPEDIATYYCLQYEQLRTFGGGTKVEIKRTVAAPSVFIFPPSDEQLKSGTASVVCLLNNFYPREAKVQWKVDNALQSGNSQESVTEQDSKDSTYSLSSTLTLSKADYEKHKVYACEVTHQGLSSPVTKSFNRGEC
# notes: Anti-epiregulin heterodimerized IgG1, knobs-into-holes
# B3: J142-z73/L180-k (antibody, human IgG4 S228P, kappa)
# heavy: QVQLVQSGSELKKPGASVKVSCKASGYTFTDNNMDWVRQAPGQGLEWMGDINTRSGGSIYNEEFQDRVTMTIDKSTGTAYMELSSLRSEDTAVYYCARRRSYGYYHDEWGEGTLVTVSSASTKGPSVFPLAPCSRSTSESTAALGCLVKDYFPEPVTVSWNSGALTSGVHTFPAVLQSSGLYSLSSVVTVPSSSLGTKTYTCNVDHKPSNTKVDKRVESKYGPPCPPCPAPEFLGGPSVFLFPPKPKDTLMISRTPEVTCVVVDVSQEDPEVQFNWYVDGVEVHNAKTKPREEQFNSTYRVVSVLTVLHQDWLNGKEYKCKVSNKGLPSSIEKTISKAKGQPREPQVYTLPPSQEEMTKNQVSLTCLVKGFYPSDIAVEWESNGQPENNYKTTPPVLDSDGSFFLYSRLTVDKSRWQEGNVFSCSVMHEALHNRFTQESLSLSP
# light: DIQMTQSPSSLSASVGDRVTITCKASRNIERNLAWYQQKPGQAPELLIYSASRKESGVPDRFSGSRYGTDFTLTISSLQPEDLATYYCQQYYSPPLTFGGGTKVEIKRTVAAPSVFIFPPSDEQLKSGTASVVCLLNNFYPREAKVQWKVDNALQSGNSQESVTEQDSKDSTYSLSSTLTLSKADYEKHKVYACEVTHQGLSSPVTKSFNRGEC
# notes: also called homomeric antibody against FX
# Experiments:
# FcgRIIaR [1] = target: T1, FcgRIIaR; assay: SPR (Biacore), antibody captured on chip, FcgR extracellular domain as analyte
# Procedure: (§1) Specifically, H240-Kn204 resulting from the introduction of L234Y/K290Y/Y296W into H240-Kn033, H240-Hl211 resulting from the introduction of S239D/A330M/K334V into H240-Hl033, H240-Kn205 resulting from the introduction of L234Y/Y296W/S298C into H240-Kn033, and H240-Hl212 resulting from the introduction of S239D/K334V into H240-Hl033 were produced according to the method of Reference Example 1. H240-Kn204/H240-Hl211/L73-k0 and H240-Kn205/H240-Hl212/L73-k0 were prepared according to the method of Reference Example 1, by combining H240-Kn204 as one of the H chains and L73-k0 as the L chains with H240-Hl211 as the other H chain, and by combining H240-Kn205 as one of the H chains and L73-k0 as the L chains with H240-Hl212 as the other H chain, and then expressing them. The binding of the prepared variants to FcgRIa, FcgRIIaR, FcgRIIaH, FcgRIIb, FcgRIIIaF, and FcgRIIIaV was measured according to the method of Reference Example 8.
# (§2) Analysis of interaction between objective antibody and the FcγR was carried out using Biacore T100 (GE Healthcare), Biacore T200, Biacore A100, and Biacore 4000. HBS-EP+ (GE Healthcare) was used as the running buffer, and the measurement temperature was set to 25° C. Chips produced by immobilizing the antigen peptide by the amine coupling method to a Series S sensor Chip CM5 (GE Healthcare), chips produced by allowing preliminarily biotinylated antigen peptides to interact with and immobilize onto a Series S Sensor Chip SA (certified) (GE Healthcare), chips produced by immobilizing Protein L (ACTIGEN, BioVision) to Series S Sencor Chip CM5 (GE Healthcare), or chips produced by immobilizing Protein A/G (Thermo Scientific) to Series S Sencor Chip CM5 (GE Healthcare) were used. Antibodies of interest were captured onto these chips, and allowed to interact to each FcγR diluted with running buffer. To regenerate and repeatedly use the chip, the antibodies captured onto the chip were washed off by reacting 10 mM glycine-HCl, pH 1.5.
# FcgRIIIaF [2] = target: T7, FcgRIIIaF (human, UniProt P08637 17-208); assay: as above
# T7 construct: extracellular domain; also called FcγRIIIa F; 3aF; not shown: His tag attached to the C terminus
# Procedure: as §1, §2
# T7 sequence (P08637 17-208): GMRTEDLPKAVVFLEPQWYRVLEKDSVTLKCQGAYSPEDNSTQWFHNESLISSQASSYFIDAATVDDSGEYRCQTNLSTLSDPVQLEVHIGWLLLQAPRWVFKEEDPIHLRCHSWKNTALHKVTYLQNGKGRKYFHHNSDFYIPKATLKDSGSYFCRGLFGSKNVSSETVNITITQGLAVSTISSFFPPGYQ
# FcgRIIb [3] = target: T2, FcgRIIb; assay: as above
# Procedure: as §1, §2
# FcgRIa = target: T8, FcgRIa (human, UniProt P12314 16-292); assay: as above
# T8 construct: extracellular domain; also called FcγRIa; FcγRI (CD64); not shown: His tag attached to the C terminus
# Procedure: as §1, §2
# FcgRIIaH [4] = target: T3, FcgRIIaH; assay: as above
# Procedure: as §1, §2
# FcgRIIIaV [5] = target: T9, FcgRIIIaV (human, UniProt P08637 17-208); assay: as above
# T9 construct: extracellular domain; also called FcγRIIIa V; 3aV; not shown: His tag attached to the C terminus
# Procedure: as §1, §2
# FcgRIIb [6] = target: T4, FcgRIIb; assay: SPR (Biacore); KD of H240-Kn033/H240-Hl033/L73-k0 divided by KD of this variant
# FcgRIIIaF [7] = target: T10, FcgRIIIaF (human, UniProt P08637 17-208); assay: as above
# T10 construct: extracellular domain; also called FcγRIIIa F; 3aF; not shown: His tag attached to the C terminus
# T10 sequence (P08637 17-208): as above
# FcgRIIaR [8] = target: T5, FcgRIIaR; assay: as above
# FcgRIIIaV [9] = target: T9, FcgRIIIaV; assay: as above
# FcgRIIaH [10] = target: T6, FcgRIIaH; assay: as above
# Protein A = target: T11, Protein A (UniProt P38507 37-327); assay: Protein A column chromatography, stepwise pH elution; eluted fractions analysed by cation exchange chromatography (peak area %)
# T11 construct: Commercial chromatography resin; also called rProtein A Sepharose Fast Flow (GE Healthcare)
# T9 sequence (P08637 17-208 F176V limits assumed): as the sequence (P08637 17-208) above, with F160V counted along it
# T8 sequence (P12314 16-292): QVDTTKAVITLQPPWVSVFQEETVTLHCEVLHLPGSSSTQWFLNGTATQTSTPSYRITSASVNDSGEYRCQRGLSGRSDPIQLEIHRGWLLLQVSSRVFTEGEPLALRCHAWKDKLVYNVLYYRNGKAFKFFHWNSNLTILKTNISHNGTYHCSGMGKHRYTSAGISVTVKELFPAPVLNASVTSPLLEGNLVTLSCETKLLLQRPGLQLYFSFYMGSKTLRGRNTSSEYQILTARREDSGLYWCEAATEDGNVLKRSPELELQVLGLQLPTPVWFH
binder,measurement,setting,value
B1,Kd,FcgRIIaR [1],420 nM
same,Kd,FcgRIIIaF [2],1.3 nM
same,Kd,FcgRIIb [3],3900 nM
same,Kd,FcgRIa,0.066 nM
same,Kd,FcgRIIaH [4],140 nM
B2,Kd,FcgRIIIaV [5],0.26 nM
same,fold 2b,FcgRIIb [6],0.8 fold
same,fold 3aF,FcgRIIIaF [7],223 fold
same,fold 2aR,FcgRIIaR [8],1.8 fold
same,fold 3aV,FcgRIIIaV [9],185 fold
same,fold 2aH,FcgRIIaH [10],3.7 fold
B3,binding result,Protein A,no binding
